Biological target: netrin-1 (UniProt O95631)

DCC-HaloTag (from UniProt P43146 26-1447) (receptor)
percent of DCC-HaloTag speckles in grip (immobile) phase in growth-cone filopodia of hippocampal neurons on netrin-1-coated substrate, TIRF speckle imaging (15% grip on polylysine alone): 40%

Source: paper PMC10875621
